This note sets out measurements from publication PMC10873202, “Structural mechanisms of autoinhibition and substrate recognition by the ubiquitin ligase HACE1” (Nature Structural & Molecular Biology, 2024).

The stoichiometry N is a count of units in the complex or per binding partner.

Data set [1] deals with T1, HACE1 full length, wild type (HACE1 FL) (human), Q8IYU2.
T1 chain: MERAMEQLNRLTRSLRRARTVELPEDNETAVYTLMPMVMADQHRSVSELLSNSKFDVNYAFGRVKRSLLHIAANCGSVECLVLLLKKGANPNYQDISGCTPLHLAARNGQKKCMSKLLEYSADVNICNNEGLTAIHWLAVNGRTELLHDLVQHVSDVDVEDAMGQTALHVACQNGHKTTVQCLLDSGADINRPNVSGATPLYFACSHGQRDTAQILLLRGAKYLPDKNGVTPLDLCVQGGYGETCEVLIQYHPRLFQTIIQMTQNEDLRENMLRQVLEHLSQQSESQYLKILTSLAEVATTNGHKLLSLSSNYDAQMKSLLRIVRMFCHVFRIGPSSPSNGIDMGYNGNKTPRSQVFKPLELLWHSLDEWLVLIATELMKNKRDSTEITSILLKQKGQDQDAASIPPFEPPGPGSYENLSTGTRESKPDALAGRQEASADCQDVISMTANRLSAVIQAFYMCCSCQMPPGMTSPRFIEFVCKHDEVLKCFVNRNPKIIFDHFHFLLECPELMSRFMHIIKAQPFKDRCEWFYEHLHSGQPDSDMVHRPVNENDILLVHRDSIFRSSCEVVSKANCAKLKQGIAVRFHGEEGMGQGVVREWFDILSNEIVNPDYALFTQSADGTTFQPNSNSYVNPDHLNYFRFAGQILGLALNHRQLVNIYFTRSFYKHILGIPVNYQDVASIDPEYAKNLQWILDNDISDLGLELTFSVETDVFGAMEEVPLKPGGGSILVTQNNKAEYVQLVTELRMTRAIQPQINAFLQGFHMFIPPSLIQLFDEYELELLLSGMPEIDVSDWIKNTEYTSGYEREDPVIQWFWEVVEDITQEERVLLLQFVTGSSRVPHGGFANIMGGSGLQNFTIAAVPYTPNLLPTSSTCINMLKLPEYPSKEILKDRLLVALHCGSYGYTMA
The data set is described as follows: SEC; analytical SEC, 20 μM HACE1, 50 mM HEPES (pH 8.0), 150 mM NaCl, 1 mM DTT, Superdex 200 Increase 3.2/300, 4 °C. As to conditions: remark: other sources report otherwise.

Data set [2] addresses T1, HACE1 full length, wild type (HACE1 FL) …. The data set is described as follows: mass photometry; HACE1 samples at 20–40 nM in 25 mM HEPES (pH 8.0), 150 mM NaCl; One^MP mass photometer, BSA calibration. Conditions: remark: other sources report otherwise.
Data set [3] deals with the molecule itself. The description is as above.

Residue numbers refer to the chain shown, from its start.

B1: HACE1 full length, wild type (HACE1 FL), Q8IYU2 1-909 (enzyme)
chain: T1 chain
As for B1, the stoichiometry N in data set [1] and in data set [2] was 2 each time.

B2: HACE1 L11A (enzyme, human, UniProt Q8IYU2 1-909, looked up)
chain: T1 chain with L11A
notes: HACE1, human, full-length variant; also called Leu11 substituted with alanine; source: E. coli BL21(DE3), purified (IMAC, tag removal, SEC); not shown: His6 (pSKB2) or His10-tandem Z (pN-HZ10-ZZ(3)), N-terminal, cleaved
Take B2: the binding result in data set [3] is “binds”.

B3: HACE1 L704D (enzyme, human, UniProt Q8IYU2 1-909, looked up)
chain: T1 chain with L704D
notes: HACE1, human, full-length variant (HECT N-lobe); source: E. coli BL21(DE3), purified (IMAC, tag removal, SEC); not shown: His6 (pSKB2) or His10-tandem Z (pN-HZ10-ZZ(3)), N-terminal, cleaved
Take B3: in data set [3], the binding result is listed as “binds”.

B4: HACE1 L15A (enzyme, human, UniProt Q8IYU2 1-909, looked up)
chain: T1 chain with L15A
notes: HACE1, human, full-length variant; also called Leu15 substituted with alanine; source: E. coli BL21(DE3), purified (IMAC, tag removal, SEC); not shown: His6 (pSKB2) or His10-tandem Z (pN-HZ10-ZZ(3)), N-terminal, cleaved
As for B4, the binding result in data set [3] is “binds”.

B5: HACE1 L8D (enzyme, human, UniProt Q8IYU2 1-909, looked up)
chain: T1 chain with L8D
notes: HACE1, human, full-length variant; source: E. coli BL21(DE3), purified (IMAC, tag removal, SEC); not shown: His6 (pSKB2) or His10-tandem Z (pN-HZ10-ZZ(3)), N-terminal, cleaved
In the case of B5, in data set [3], the binding result is reported as “binds”.

B6: HACE1 T12E (enzyme, human, UniProt Q8IYU2 1-909, looked up)
chain: T1 chain with T12E
notes: HACE1, human, control phospho-mimetic variant compared with the wild-type dimer ('FL'); source: E. coli BL21(DE3), purified (IMAC, tag removal, SEC); not shown: His6 (pSKB2) or His10-tandem Z (pN-HZ10-ZZ(3)), N-terminal, cleaved
On to B6, for which the binding result in data set [3] is reported as “binds”.

B7: HACE1 L8A (enzyme, human, UniProt Q8IYU2 1-909, looked up)
chain: T1 chain with L8A
notes: HACE1, human, full-length variant; also called Leu8 substituted with alanine; source: E. coli BL21(DE3), purified (IMAC, tag removal, SEC); not shown: His6 (pSKB2) or His10-tandem Z (pN-HZ10-ZZ(3)), N-terminal, cleaved
As to B7, the binding result in data set [3] is on record as “binds”.
